We go through 6 substances from patent US20110311585A1.

Assay in all cases: cell-based or functional assay
The target in assay [1] is HIV-1 envelope glycoprotein gp160, clone 005 from subject 108051, Q655R mutant (HIV-1).
Assay [2] addresses HIV-1 envelope glycoprotein gp160, clone 005 from subject 108069, Q655R mutant (HIV-1).
In assay [3] the target is HIV-1 envelope glycoprotein gp160, clone 022 from subject 108060, Q655R mutant (HIV-1).
The target of assay [4] is HIV-1 envelope glycoprotein gp160, clone 024 from subject 108060, R655Q mutant (HIV-1).

As for “broadly neutralizing monoclonal antibody 2F5”, the IC50, pseudovirus neutralization came to 0.343 µg/mL in assay [1], 0.052 µg/mL in assay [2], 0.093 µg/mL in assay [3] and 3.43 µg/mL in assay [4]. Moreover, in assay [3], the fold increase in neutralization sensitivity against wild-type clone 022 fell in the range of 30 to 35 fold.

“CD4-IgG (from UniProt P01730 26-205) (Fc fusion)”: the IC50, pseudovirus neutralization in assay [1] was 5.21 µg/mL; in assay [2], 1.08 µg/mL; in assay [3], 0.161 µg/mL; in assay [4] it was above 20 µg/mL. In addition, the fold increase in neutralization sensitivity against the parental virus in assay [2] is above 20 fold. In addition, the fold increase in neutralization sensitivity against wild-type clone 022 in assay [3] was above 125 fold.

Turning to “broadly neutralizing monoclonal antibody 4E10”, the IC50, pseudovirus neutralization worked out at 1.31 µg/mL in assay [1], 0.044 µg/mL in assay [2], 0.156 µg/mL in assay [3] and 6.55 µg/mL in assay [4]. This substance also registered a fold increase in neutralization sensitivity against wild-type clone 022 in assay [3] of 30 to 35 fold.

For the substance monoclonal antibody 2G12, the IC50, pseudovirus neutralization in assay [1], in assay [2], in assay [3] and in assay [4] was above 20 µg/mL throughout.

Take “broadly neutralizing, CD4 blocking monoclonal antibody (MAb) b12”: the IC50, pseudovirus neutralization in assay [1], in assay [2], in assay [3] and in assay [4] was above 20 µg/mL each time.

Consider enfuvirtide (peptide), for which the IC50, pseudovirus neutralization was found to be 0.036 µg/mL in assay [1], 0.011 µg/mL in assay [2], 0.004 µg/mL in assay [3] and 0.13 µg/mL in assay [4]. For the same substance, the fold increase in neutralization sensitivity against the parental virus in assay [2] is above 17 fold. In assay [3], this substance yielded a fold increase in neutralization sensitivity against wild-type clone 022 of 17 fold.
